Measurements from IntAct's records for PubMed 21903585.

B1: RAD51-associated protein 1 (Homo sapiens), Q96B01-2 (parent)
chain: MVRPVRHKKPVNYSQFDHSDSDDDFVSATVPLNKKSRTAPKELKQDKPKPNLNNLRKEEIPVQEKTPKKRMALDDKLYQRDLEVALALSVKELPTVTTNVQNSQDKSIEKHGSSKIETMNKSPHISNCSVASDYLDLDKITVEDDVGGVQGKRKAASKAAAQQRKILLEGSDGDSANDTEPDFAPGEDSEDDSDFCESEDNDEDFSMRKSKVKEIKKKEVKVKSPVEKKEKKSKSKCNALVTSVDSAPAAVKSESQSLPKKVSLSSDTTRKPLEIRSPSAESKKPKWVPPAASGGSRSSSSPLVVVSVKSPNQSLRLGLSRLARVKPLHPNATST
partner: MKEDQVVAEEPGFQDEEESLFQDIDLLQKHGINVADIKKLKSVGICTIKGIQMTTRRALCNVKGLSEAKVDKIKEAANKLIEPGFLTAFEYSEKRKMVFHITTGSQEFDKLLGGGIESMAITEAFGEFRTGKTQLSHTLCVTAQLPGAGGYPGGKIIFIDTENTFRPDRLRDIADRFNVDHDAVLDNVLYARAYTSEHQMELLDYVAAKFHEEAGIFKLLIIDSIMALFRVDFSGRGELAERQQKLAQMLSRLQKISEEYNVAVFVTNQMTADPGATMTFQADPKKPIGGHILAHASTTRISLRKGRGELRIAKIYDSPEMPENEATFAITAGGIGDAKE

Variants of: B1
Settings: with dmc1_human DMC1, Q14565
For W287A, the “effect of a mutation on the interaction” value was “disrupting interaction”.
